Test results reported in PMC10662374, “Structures of the interleukin 11 signalling complex reveal gp130 dynamics and the inhibitory mechanism of a cytokine variant” (Nature Communications, 2023).
One block for each binder: values may come before it.

B3: IL-11Δ10/IL-11Rα_(D1-D3) binary complex (complex, human)
chain 1: SPDPRAELDSTVLLTRSLLADTRQLAAQLRDKFPADGDHNLDSLPTLAMSAGALGALQLPGVLTRLRADLLSYLRHVQWLRRAGGSSLKTLEPELGTLQARLDRLLRRLQLLMSRLALPQPPPDPPAPPLAPPSSAWGGIRAAHAILGGLHLTLDWAVRGLLLLKTRL
chain 2: SSPCPQAWGPPGVQYGQPGRSVKLCCPGVTAGDPVSWFRDGEPKLLQGPDSGLGHELVLAQADSTDEGTYICQTLDGALGGTVTLQLGYPPARPVVSCQAADYENFSCTWSPSQISGLPTRYLTSYRKKTVLGADSQRRSPSTGPWPCPQDPLGAARCVVHGAEFWSQYRINVTEVNPLGASTRLLDVSLQSILRPDPPQGLRVESVPGYPRRLRASWTYPASWPCQPHFLLKFRLQYRPAQHPAWSTVEPAGLEEVITDAVAGLPHAVRVSARDFLDAGTWSTWSPEAWGTPSTGT
notes: IL-11, human, IL-11Δ10, as m1; numbers count on: the mature protein; IL-11Rα, human, D1-D3, as m8; m1 with m8; also called IL-11Rα_(D1-D3)/IL-11Δ10 binary complex; binary IL-11/IL-11Rα complex; source: formed from the purified proteins (IL-11Δ10 from E. coli, IL-11Rα_(D1-D3) from Sf21); in ITC by titrating the cytokine into IL-11Rα; not shown: His6, N-terminal, cleaved; His8, N-terminal, cleaved; …

Tests used:
[1] = biological target: T1, IL-11_(Δ10/Mutein)/IL-11Rα_(D1-D3) binary complex (human, UniProt P20809 32-199; Q14626 23-319, W147A | ^58AMSAG^62 to ^58PAIDY^62); experiment: ITC; gp130 in the syringe titrated against the cytokine/IL-11Rα_(D1-D3) complex formed in the cell, 288 K, TBS pH 8.5, 1:1 interaction model, n = 3; conditions: both partners purified
T1 construct: IL-11, human, IL-11Δ10 with W147A and 58-62 AMSAG to PAIDY, as m4; numbers count on: the mature protein; IL-11Rα, human, D1-D3, as m8; m4 with m8; source: formed from the purified proteins; in ITC by titrating the cytokine into IL-11Rα; not shown: His6, N-terminal, cleaved; His8, N-terminal, cleaved
T1 sequence 1: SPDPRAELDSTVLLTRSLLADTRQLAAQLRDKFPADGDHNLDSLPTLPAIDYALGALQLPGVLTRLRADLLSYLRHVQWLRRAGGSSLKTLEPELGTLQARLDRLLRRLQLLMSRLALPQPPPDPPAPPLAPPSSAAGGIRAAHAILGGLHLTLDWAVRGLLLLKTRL
T1 sequence 2: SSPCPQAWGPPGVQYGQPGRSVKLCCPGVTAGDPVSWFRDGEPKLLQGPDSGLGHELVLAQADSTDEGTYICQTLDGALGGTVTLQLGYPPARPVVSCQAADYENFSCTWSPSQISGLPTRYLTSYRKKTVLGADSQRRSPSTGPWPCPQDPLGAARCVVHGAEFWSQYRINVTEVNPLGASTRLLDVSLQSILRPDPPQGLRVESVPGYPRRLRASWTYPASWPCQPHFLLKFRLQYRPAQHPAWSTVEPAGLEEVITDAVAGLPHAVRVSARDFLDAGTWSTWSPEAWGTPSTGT

[2] = biological target: B3; experiment: as above; conditions: both partners purified
[3] = biological target: IL-11_(Δ10/PAIDY)/IL-11Rα_(D1-D3) binary complex (human) (UniProt P20809); experiment: as above
[4] = biological target: the molecule itself; experiment: AUC; sedimentation velocity, 50,000 rpm, 20 °C, c(s) model with floating frictional ratio (SEDFIT)
[5] = biological target: T2, gp130EC (human, UniProt P40189 23-619, N-linked glycans (N21, N61, N135 seen in the structures)); experiment: ITC; gp130 in the syringe titrated against the cytokine/IL-11Rα_(D1-D3) complex formed in the cell, 288 K, TBS pH 8.5, 1:1 interaction model, n = 3; conditions: both partners purified
T2 construct: Secreted with a honeybee-melittin signal peptide; D5-D6 are not in the deposited model 8DPT; also called complete extracellular domains of gp130; D1-D6 domains of gp130; not shown: His8, N-terminal, cleaved
T2 sequence (looked up): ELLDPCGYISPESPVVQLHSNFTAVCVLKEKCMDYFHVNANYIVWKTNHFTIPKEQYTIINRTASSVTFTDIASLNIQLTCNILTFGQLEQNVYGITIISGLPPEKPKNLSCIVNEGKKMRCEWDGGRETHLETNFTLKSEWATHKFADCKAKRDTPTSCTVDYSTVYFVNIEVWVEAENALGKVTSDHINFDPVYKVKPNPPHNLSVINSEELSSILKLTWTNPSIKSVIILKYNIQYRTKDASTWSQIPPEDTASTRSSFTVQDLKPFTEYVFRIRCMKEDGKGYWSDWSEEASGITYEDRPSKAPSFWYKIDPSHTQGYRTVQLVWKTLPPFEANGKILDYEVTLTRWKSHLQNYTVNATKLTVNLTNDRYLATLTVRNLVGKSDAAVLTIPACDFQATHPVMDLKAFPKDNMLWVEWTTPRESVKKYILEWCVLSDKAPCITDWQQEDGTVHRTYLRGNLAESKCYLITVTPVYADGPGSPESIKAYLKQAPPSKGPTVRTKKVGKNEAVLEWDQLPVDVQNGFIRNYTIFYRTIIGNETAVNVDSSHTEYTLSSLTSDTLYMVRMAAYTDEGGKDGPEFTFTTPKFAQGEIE

[6] = biological target: T2, gp130EC; experiment: cryo-EM structure; IL-11Δ10/IL-11Rα_(D1-D3)/gp130EC complex, 1.5 mg/mL, with 1–2 mM n-dodecyl β-D-maltoside, not size exclusion purified; C2 symmetry, 3.8 Å; conditions: both partners purified

Kd [1]: 55 nM
Kd [2]: 3 nM
dH [2]: -8.13 kcal/mol
Kd [3]: 20 nM
B1: gp130_(D1-D3) (receptor, human)
chain: GELLDPCGYISPESPVVQLHSNFTAVCVLKEKCMDYFHVNANYIVWKTNHFTIPKEQYTIINRTASSVTFTDIASLNIQLTCNILTFGQLEQNVYGITIISGLPPEKPKNLSCIVNEGKKMRCEWDGGRETHLETNFTLKSEWATHKFADCKAKRDTPTSCTVDYSTVYFVNIEVWVEAENALGKVTSDHINFDPVYKVKPNPPHNLSVINSEELSSILKLTWTNPSIKSVIILKYNIQYRTKDASTWSQIPPEDTASTRSSFTVQDLKPFTEYVFRIRCMKEDGKGYWSDWSEEASGITYEDR
modifications: N-linked glycans (N21, N61, N135 seen in the structures)
notes: glycoprotein 130 (gp130), human, domains D1-D3; Secreted with a honeybee-melittin signal peptide; not shown: His8, N-terminal, cleaved

B2: IL-11Δ10/IL-11Rα_(D1-D3)/gp130EC trimer (complex, human)
chain 1: SPDPRAELDSTVLLTRSLLADTRQLAAQLRDKFPADGDHNLDSLPTLAMSAGALGALQLPGVLTRLRADLLSYLRHVQWLRRAGGSSLKTLEPELGTLQARLDRLLRRLQLLMSRLALPQPPPDPPAPPLAPPSSAWGGIRAAHAILGGLHLTLDWAVRGLLLLKTRL
chain 2: SSPCPQAWGPPGVQYGQPGRSVKLCCPGVTAGDPVSWFRDGEPKLLQGPDSGLGHELVLAQADSTDEGTYICQTLDGALGGTVTLQLGYPPARPVVSCQAADYENFSCTWSPSQISGLPTRYLTSYRKKTVLGADSQRRSPSTGPWPCPQDPLGAARCVVHGAEFWSQYRINVTEVNPLGASTRLLDVSLQSILRPDPPQGLRVESVPGYPRRLRASWTYPASWPCQPHFLLKFRLQYRPAQHPAWSTVEPAGLEEVITDAVAGLPHAVRVSARDFLDAGTWSTWSPEAWGTPSTGT
chain 3: ELLDPCGYISPESPVVQLHSNFTAVCVLKEKCMDYFHVNANYIVWKTNHFTIPKEQYTIINRTASSVTFTDIASLNIQLTCNILTFGQLEQNVYGITIISGLPPEKPKNLSCIVNEGKKMRCEWDGGRETHLETNFTLKSEWATHKFADCKAKRDTPTSCTVDYSTVYFVNIEVWVEAENALGKVTSDHINFDPVYKVKPNPPHNLSVINSEELSSILKLTWTNPSIKSVIILKYNIQYRTKDASTWSQIPPEDTASTRSSFTVQDLKPFTEYVFRIRCMKEDGKGYWSDWSEEASGITYEDRPSKAPSFWYKIDPSHTQGYRTVQLVWKTLPPFEANGKILDYEVTLTRWKSHLQNYTVNATKLTVNLTNDRYLATLTVRNLVGKSDAAVLTIPACDFQATHPVMDLKAFPKDNMLWVEWTTPRESVKKYILEWCVLSDKAPCITDWQQEDGTVHRTYLRGNLAESKCYLITVTPVYADGPGSPESIKAYLKQAPPSKGPTVRTKKVGKNEAVLEWDQLPVDVQNGFIRNYTIFYRTIIGNETAVNVDSSHTEYTLSSLTSDTLYMVRMAAYTDEGGKDGPEFTFTTPKFAQGEIE
notes: IL-11, human, IL-11Δ10, as m1; numbers count on: the mature protein; IL-11Rα, human, D1-D3, as m8; gp130, human, D1-D6, as m12; Two such trimers associate to the hexamer; also called one half of the gp130EC complex; source: equimolar mix of the purified proteins; not shown: His6, N-terminal, cleaved; His8, N-terminal, cleaved; copies: 1 + 1 + 1
binding result [4]: binds

Binder: B3
Kd [5]: 4 nM

binding result [6]: binds
B4: IL-11Δ10 (ligand, human)
chain: SPDPRAELDSTVLLTRSLLADTRQLAAQLRDKFPADGDHNLDSLPTLAMSAGALGALQLPGVLTRLRADLLSYLRHVQWLRRAGGSSLKTLEPELGTLQARLDRLLRRLQLLMSRLALPQPPPDPPAPPLAPPSSAWGGIRAAHAILGGLHLTLDWAVRGLLLLKTRL
notes: numbers count on: the mature protein; also called N-terminally truncated form of IL-11; WT IL-11Δ10; not shown: His6, N-terminal, cleaved
